We go through 2 molecules from patent US20180127500A1 (ANAPTYSBIO, published 2018).

One test addresses T1, Human TIM-3 (human, UniProt Q8TDQ0 22-200, limits assumed).
T1 construct: The construct used for BIACORE is not described; also called T Cell Immunoglobulin and Mucin Protein 3; HAVCR2
T1 sequence (looked up): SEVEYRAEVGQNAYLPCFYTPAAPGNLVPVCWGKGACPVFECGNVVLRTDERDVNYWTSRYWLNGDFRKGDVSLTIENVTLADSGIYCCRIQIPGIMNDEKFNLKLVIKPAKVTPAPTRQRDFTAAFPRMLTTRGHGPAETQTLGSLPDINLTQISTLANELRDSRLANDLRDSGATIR
Description: BIACORE (SPR). In general terms: SPR reads the build-up and loss of mass on a sensor chip optically.

The target of another test is T2, Cyno TIM-3 (cynomolgus monkey, UniProt A0A2K5U3G7 22-294).
T2 construct: The construct used for BIACORE is not described; also called cynomolgus monkey TIM-3
T2 sequence: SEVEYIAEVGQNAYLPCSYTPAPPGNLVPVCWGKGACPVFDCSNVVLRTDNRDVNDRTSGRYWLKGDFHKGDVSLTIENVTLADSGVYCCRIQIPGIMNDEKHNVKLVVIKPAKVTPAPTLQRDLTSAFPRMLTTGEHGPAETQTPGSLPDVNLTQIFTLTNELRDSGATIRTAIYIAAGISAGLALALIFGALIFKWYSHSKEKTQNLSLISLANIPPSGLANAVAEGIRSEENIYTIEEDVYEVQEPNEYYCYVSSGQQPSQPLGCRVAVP
Description: BIACORE (SPR).

B1: APE5137 (antibody, V domains shown)
VH: EVQLLESGGGLVQPGGSLRLSCAAASGFTFSSYDMSWVRQAPGKGLDWVSTISGGGTYTYYQDSVKGRFTISRDNSKNTLYLQMNSLRAEDTAVYYCASMDYWGQGTTVTVSS
VL: DIQMTQSPSSLSASVGDRVTITCRASQSIRRYLNWYHQKPGKAPKLLIYGASTLQSGVPSRFSGSGSGTDFTLTISSLQPEDFAVYYCQQSHSAPLTFGGGTKVEIKR
notes: also called Lead Antibody; lead anti-TIM-3 antibody
In the case of B1, the Kd (as a rule, the equilibrium constant for the complex coming apart) with Human TIM-3 was 50 pM; with Cyno TIM-3 it was 190 pM.

B2: APE5121 (antibody, V domains shown)
VH: EVQVLESGGGLVQPGGSLRLYCVASGFTFSGSYAMSWVRQAPGKGLEWVSAISGSGGSTYYADSVKGRFTISRDNSKNTLYLQMNSLRAEDTAVYYCAKKYYVGPADYWGQGTLVTVSS
VL: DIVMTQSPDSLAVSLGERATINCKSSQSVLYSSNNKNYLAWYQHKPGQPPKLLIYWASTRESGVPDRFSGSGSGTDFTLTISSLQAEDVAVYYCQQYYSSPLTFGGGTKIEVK
notes: also called Back-Up Antibody
For the molecule B2, the values for the Kd with Human TIM-3 and in the test with Cyno TIM-3 were less than 50 pM and 1500 pM, respectively.
